# Reference: paper PMC7463542, “Automated GMP-Compliant Production of [^68Ga]Ga-DO3A-Tuna-2 for PET Microdosing Studies of the Glucagon Receptor in Humans” (Pharmaceuticals, 2020)
# Experiments:
# [1] = Storage stability of the aqueous precursor solution at −20 °C (formation of oxidized product); type: physicochemical; conditions: at least six months
# [2] = Safety, pharmacology, and toxicology studies in animals; type: in vivo
# [3] = type: physicochemical
# Description: The aseptic production was conducted in a GMP grade A workstation (unidirectional laminar airflow workbench (LAFW)) situated in a cleanroom with GMP grade B air quality. The ^68Ge/^68Ga generator (GalliaPharm®, Eckert & Ziegler, Berlin, Germany) and Modular PharmLab labeling synthesis platform (Eckert & Ziegler Eurotope, Berlin, Germany) were placed in the LAFW. A high-performance liquid chromatography system (LaChrom, Hitachi, VWR) consisting of an L-2130 pump, UV detector (L-2400), and radiation flow detector (Bioscan) coupled in series was used for product quality control. Separation of the analytes was accomplished using an analytical column with a stationary reversed phase (C-4; Vydac-C4; 50 × 4.6 mm; particle size: 3 µm). The conditions were as follows: A = 10 mM trifluoroacetic acid in water; B = 100% acetonitrile (MeCN) with 10 mM TFA with UV-detection at 220 nm; linear gradient elution: 0 min at 24% B, 0–8 min from 24 to 45% B, 8–10 min at 45% B, 10–15 min at 24% B; flow rate was 2.0 mL/min. Data acquisition and handling were performed using the EZChrom Elite Software Package (version 1.3).
# Quality control on the chemical purity, radiochemical purity, and determination of the peptide concentration was performed using UV-Radio-HPLC. The development and validation of the method were conducted using two different reversed-phase columns Vydac-C4 and Aeris-C4 with mobile phases of 0.1% TFA in water as the A mobile phase and 0.1% TFA in acetonitrile as the B mobile phase. The gradient of B increased from 25% to 40% within 30 min for Aeris-4 and B increased from 24 to 45% within 8 min, followed by 2 min of isocratic elution. The recovery of radioactivity from the analytical column was investigated, in order to confirm that no radioactive product or impurities were left on the column, by collecting HPLC effluent with and without an analytical column and measuring the radioactivity. The tests were performed for both the product ([^68Ga]Ga-DO3A-VS-Cys^40-Tuna-2) and free ^68Ga(III). Specificity, linearity, and precision as repeatability were validated for both UV- and radio-detectors.
# Three successful sequential productions were performed for the manufacturing validation. A fraction of pre-determined volume was kept for the subsequent determination of ^68Ge content and solvent residual content. The stability of the product at room temperature was monitored by UV-radio-HPLC for 2 h.
# [4] = Sensitivity of the labelled product to (radiolytic) oxidation; type: physicochemical; conditions: compared with [^68Ga]Ga-DO3A-VS-Cys^40-Exendin-4; labeling conditions
# glucagon receptor (GCGR) [5] = molecular target: T1, glucagon receptor (GCGR) (Homo sapiens, UniProt P47871); type: in vivo, humans
# T1 construct: strong liver uptake expected due to the high glucagon receptor expression on hepatocytes; from tissue; host or cells: liver (hepatocytes) of living human subjects with type 2 diabetes
# T1 sequence (P47871 26-477): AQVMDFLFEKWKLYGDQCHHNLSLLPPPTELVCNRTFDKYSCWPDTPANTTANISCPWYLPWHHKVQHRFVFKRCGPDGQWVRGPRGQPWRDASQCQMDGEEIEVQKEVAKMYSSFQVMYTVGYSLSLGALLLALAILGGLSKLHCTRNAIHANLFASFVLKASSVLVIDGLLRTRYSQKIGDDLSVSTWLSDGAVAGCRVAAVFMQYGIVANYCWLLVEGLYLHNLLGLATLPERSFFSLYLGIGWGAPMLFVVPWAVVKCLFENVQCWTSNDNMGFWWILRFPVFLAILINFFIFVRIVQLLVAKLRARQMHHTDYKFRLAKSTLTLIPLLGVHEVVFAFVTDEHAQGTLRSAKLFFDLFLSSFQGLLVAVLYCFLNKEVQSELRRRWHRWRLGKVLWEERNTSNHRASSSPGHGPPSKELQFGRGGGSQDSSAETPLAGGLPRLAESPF
# Description: [^68Ga]Ga-DO3A-VS-Cys^40-Tuna-2 PET/CT was used for assessing the hepatic GCGR receptor density and availability within a phase Ib, open-label study investigating the receptor occupancy of a dual GLP1/GCG agonist (ClinicalTrials.gov: NCT03350191). The results of the full receptor occupancy study, as well as the human biodistribution and dosimetry of [^68Ga]Ga-DO3A-VS-Cys^40-Tuna-2, will be reported separately. The study was approved by the Swedish Medical Products Agency and the regional ethical review board (Dnr 2017/395; EudraCT nr. 2017-001789-23).
# Briefly, individuals with T2D were enrolled in the study and signed informed consent. They (n = 13) were placed in the supine position with the liver in the 20 cm axial PET field of view of a Discovery MI PET/CT scanner (GE Healthcare). [^68Ga]Ga-DO3A-VS-Cys^40-Tuna-2 (target dose 0.5 MBq/kg, <0.2 µg/kg peptide) was administered intravenously as a bolus followed by a 60 min dynamic PET acquisition in list-mode. The PET list mode data were reconstructed into 30 frames (12 × 10, 6 × 30, 5 × 120, 5 × 300, 2 × 600 s) using an iterative VPFX-S algorithm (3 iterations, 3 subsets, matrix 256 × 256, Z-axis post-filter 3 mm) with all relevant corrections performed.
# glucagon receptor (GCGR) [6] = conditions: in vitro and in vivo in rats and non-human primates; 16 (previous studies); cited from earlier work
# Description: The manufacturing process of [^68Ga]Ga-DO3A-VS-Cys^40-Tuna-2 was automated for clinical use to meet the radiation safety and good manufacturing practice (GMP) requirements. Methods: The automated synthesis platform (Modular-Lab PharmTrace, Eckert & Ziegler, E ...
Substance,Formation of oxidized product upon storage [1],Toxicity related to the substance [2],Stability: radiochemical purity 2 h postproduction [3],"RCP at ambient temperature for at least 2 h ([3]; ambient temperature, Figure 5, as stated in discussion)","Time for which the product was stable at ambient temperature ([3]; formulated product, ambient temperature, UV-radio-HPLC)","Radiochemical purity (RCP) after production, 1 h and 2 h post-production ([3]; formulated product, room temperature, radioactivity traces of Figure 5)",Sensitivity to oxidation [4],"Binding in the liver (glucagon receptor (GCGR) [5]; T2D patients, IV bolus, baseline examinations, 60 min dynamic PET)","Plasma kinetics (glucagon receptor (GCGR) [5]; in vivo, iv)",Binding to the glucagon receptor (GCGR) (glucagon receptor (GCGR) [6])
"TzaD-SerQGTFTSDYSKQLDE*QRAK*EFIEWLLATGPESGAPPPS (sidechain bridge or staple) [DO3A-VS-Cys^40-Tuna-2, unlabelled precursor (GMP-grade API starting material): Tuna-2 peptide coupled to DOTA bifunctional chelator via Cys40 and vinyl sulfone linker]",no formation of the oxidized product was detected,no DO3A-VS-Cys^40-Tuna-2 related toxicity,,,,,,,,
"TzaD-SerQGTFTSDYSKQLDE*QRAK*EFIEWLLATGPESGAPPPS (sidechain bridge or staple) [[^68Ga]Ga-DO3A-VS-Cys^40-Tuna-2, ^68Ga-labeled peptide-based PET imaging agent targeting GCGR; 39-residue Tuna-2 coupled to DOTA chelator via Cys40 and vinyl sulfone linker]",,,97.9 ± 0.9%,over 95%,at least 2 h,over 98%,less sensitive to the oxidation,strong binding in the liver,rapid plasma kinetics,high-affinity specific binding
